# Data from US20050221433A1 (Regeneron, published 2005).
# T1: recombinant human IL-18 (human, UniProt Q14116 37-193)
# T1 construct: Analyte in the BiaCore assay and stimulus (4 pM) in the NFkB-luciferase bioassay; also called hIL-18
# T1 sequence (looked up): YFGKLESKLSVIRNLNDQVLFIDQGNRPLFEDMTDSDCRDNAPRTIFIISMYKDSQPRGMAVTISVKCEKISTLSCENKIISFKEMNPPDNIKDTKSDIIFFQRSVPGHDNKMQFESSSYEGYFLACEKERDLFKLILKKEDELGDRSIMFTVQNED
# B1: hIL18BPa (72-192).TG.hFc (Fc fusion)
# chain: VEVPLNGTLSLSCVACSRFPNFSILYWLGNGSFIEHLPGRLWEGSTSRERGSTGTQLCKALVLEQLTPALHSTNFSCVLVDPEQVVQRHVVLAQLWAGLRATLPPTQEALPSSHSSPQQQGTG
# notes: not shown: hFc (human Fc)
# B2: hIL18BPa (1-192) (C49S, C129S).His (receptor)
# chain: TPVSQTTTAATASVRSTKDPSPSQPPVFPAAKQCPALEVTWPEVEVPLNGTLSLSCVACSRFPNFSILYWLGNGSFIEHLPGRLWEGSTSRERGSTGTQLSKALVLEQLTPALHSTNFSCVLVDPEQVVQRHVVLAQLWAGLRATLPPTQEALPSSHSSPQQQGTGHHHHHHHH
# B3: hIL18BPa (1-181) (C49S, C129S).His (receptor)
# chain: TPVSQTTTAATASVRSTKDPSPSQPPVFPAAKQCPALEVTWPEVEVPLNGTLSLSCVACSRFPNFSILYWLGNGSFIEHLPGRLWEGSTSRERGSTGTQLSKALVLEQLTPALHSTNFSCVLVDPEQVVQRHVVLAQLWAGLRATLPPTQEALTGHHHHHHHH
# B4: hIL18BPa (58-192) (C129S).His (receptor)
# chain: AAKQCPALEVTWPEVEVPLNGTLSLSCVACSRFPNFSILYWLGNGSFIEHLPGRLWEGSTSRERGSTGTQLSKALVLEQLTPALHSTNFSCVLVDPEQVVQRHVVLAQLWAGLRATLPPTQEALPSSHSSPQQQGHHHHHHHH
# Columns and labels:
# recombinant human IL-18 [1] = biological target: T1, recombinant human IL-18; assay: printed in the IC50 (M) column of Table 2 (HEK293/NFkB-luciferase hIL-18 inhibition bioassay, CHO transient supernatant)
# From the text: hIL-18 Inhibition. The HEK293/NFkB-luciferase bioassay is used to determine the ability of the IL-18-specific polypeptides of the invention to block the activity of human IL-18 (hIL-18). Human embryonic kidney 293, HEK293, cells, were transfected with an NFκB-luciferase reporter plasmid. By placing an NFκB promoter element upstream of the luciferase gene one can monitor NFκB activity in cells. Because IL-18 signaling is mediated by NFκB, when cells containing the 293/NFκB luciferase construct and the IL-18 receptors are stimulated with hIL-18, the luciferase gene is expressed and luciferase activity can be detected in cell lysates. A stable, transfected, cell line, HEK293/D9, was selected for good response to IL-1 as detected by luciferase activity. This line was transfected with the human IL-18Rα (IL-IRrp) and IL-18Rβ (IL1RAcPL) receptors and stable cell lines that responded to IL-18 with a strong luciferase signal were isolated. These cells are called hIL-18-NFκB-luciferase cells.
# For the assay, hIL-18-NFκB-Luciferase cells were suspended at 1.25×10⁵ cells per ml in medium and 0.08 ml of cells plated (10,000 cells per well) into the wells of a 96 well tissue culture plate. […] Plates were incubated at room temperature for ˜10 minutes and then read on a Victor multilabel counter (Luminescence 1 sec/well).
# recombinant human IL-18 [2] = biological target: T1, recombinant human IL-18; assay: cell-based or functional assay
Binder,binding result (recombinant human IL-18 [1]),"IC50 (M), HEK293/NFkB-luciferase bioassay (recombinant human IL-18 [2])"
B1,no binding,
B2,,8.59e-11 M
B3,,1.23e-10 M
B4,,3.9e-11 M
